This note sets out measurements from publication PMC5778602.

The test concerns the target T1, CstF-50 (full length, affinity tag removed) (human), Q05048.
T1 chain: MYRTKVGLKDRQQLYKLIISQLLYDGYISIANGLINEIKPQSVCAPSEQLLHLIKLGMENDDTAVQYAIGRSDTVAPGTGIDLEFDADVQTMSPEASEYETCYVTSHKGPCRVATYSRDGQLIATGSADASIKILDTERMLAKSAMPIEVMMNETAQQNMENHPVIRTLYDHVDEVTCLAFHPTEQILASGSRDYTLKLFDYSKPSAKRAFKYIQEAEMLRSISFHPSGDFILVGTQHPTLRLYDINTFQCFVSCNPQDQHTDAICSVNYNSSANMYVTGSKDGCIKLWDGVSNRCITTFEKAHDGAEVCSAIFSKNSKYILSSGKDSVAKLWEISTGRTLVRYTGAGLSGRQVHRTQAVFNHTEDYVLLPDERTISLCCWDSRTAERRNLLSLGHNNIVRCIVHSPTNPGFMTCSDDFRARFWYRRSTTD
Nature of the test: SEC-MALS. Conditions: remark: other sources report otherwise. (In general: Size exclusion chromatography separates by hydrodynamic size, large species first.)

B1: CstF-50 (full length, affinity tag removed), Q05048 1-431 (natural protein)
chain: T1 chain
With B1, the stoichiometry N (usually a count of units in the complex or per binding partner) came to 2.
